Source: the supplement of paper PMC10567573

B1: RAB40B (parent)
chain: YSLTTSSTHKRSSLRKVKLVRPPQ

Variants of: B1
Assay: protein stability index of a GFP-peptide fusion (GPS, HEK-293T) (PSI 1-6); higher = more stable
Conditions: c terminus: a fixed tail appended
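Further: lentivirally expressed fusions sorted by FACS into six bins by GFP to DsRed ratio, PSI derived from sequencing read proportions per bin multiplied by bin number.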

Variant | protein stability index
YSLTTSSTHKRSSLRKPKLVRPPQ | 3.13
YSLTTSSTHKRSSLRKMKLVRPPQ | 2.75
YSLTTSSTHKRSSLRKKKLVRPPQ | 3.47
YSLTTSSTHKRSSLRKRKLVRPPQ | 4.01
YSLTTSSTHKRSSLRKSKLVRPPQ | 3.3
YSLTTSSTHKRSSLRKLKLVRPPQ | 2.77
YSLTTSSTHKRSSLRKNKLVRPPQ | 3.39
YSLTTSSTHKRSSLRKQKLVRPPQ | 3.38
YSLTTSSTHKRSSLRKWKLVRPPQ | 2.53
YSLTTSSTHKRSSLRKYKLVRPPQ | 2.98
YSLTTSSTHKRSSLRKTKLVRPPQ | 3.09
YSLTTSSTHKRSSLRKVKLVRPTQ | 3.62
YSLTTSSTHKRSSLRKVKLVRPGQ | 2.69
YSLTTSSTHKRSSLRKVKLVRPCQ | 2.73
YSLTTSSTHKRSSLRKVKLVRPAQ | 3.37
YSLTTSSTHKRSSLRKVKLVRPNQ | 2.96
YSLTTSSTHKRSSLRKVKLVRPKQ | 3.25
YSLTTSSTHKRSSLRKVKLVRPIQ | 2.82
YSLTTSSTHKRSSLRKVKLVRPEQ | 3.1
YSLTTSSTHKRSSLRKVKLVRPMQ | 2.8
YSLTTSSTHKRSSLRKVKLVRPYQ | 3.79
YSLTTSSTHKRSSLRKVKLVRPDQ | 3.2
YSLTTSSTHKRSSLRKVKLVRPRQ | 3.33
YSLTTSSTHKRSSLRKVKLVRPHQ | 3.01

Variant | protein stability index
YSLTTSSTHKRSSLRKVKLVRPVQ | 3.02
YSLTTSSTHKRSSLRKVKLVRPLQ | 2.3
YSLTTSSTHKRSSLRKVKLVRPWQ | 2.04
YSLTTSSTHKRSSLRKVKLVRPFQ | 2.6
YSLTTSSTHKRSSLRKVKLVRPQQ | 3.08
YSLTTSSTHKRSSLRKVKLVRPSQ | 3.25
YSLTTSSTHKRSSLRKVKLVRPPI | 2.22
YSLTTSSTHKRSSLRKVKLVRPPF | 2.53
YSLTTSSTHKRSSLRKVKLVRPPN | 2.96
YSLTTSSTHKRSSLRKVKLVRPPW | 2.68
YSLTTSSTHKRSSLRKVKLVRPPP | 3.21
YSLTTSSTHKRSSLRKVKLVRPPR | 2.62
YSLTTSSTHKRSSLRKVKLVRPPC | 2.45
YSLTTSSTHKRSSLRKVKLVRPPE | 3.06
YSLTTSSTHKRSSLRKVKLVRPPM | 2.49
YSLTTSSTHKRSSLRKVKLVRPPA | 2.53
YSLTTSSTHKRSSLRKVKLVRPPH | 3.12
YSLTTSSTHKRSSLRKVKLVRPPS | 2.76
YSLTTSSTHKRSSLRKVKLVRPPG | 2.82
YSLTTSSTHKRSSLRKVKLVRPPT | 3
YSLTTSSTHKRSSLRKVKLVRPPD | 3.42
YSLTTSSTHKRSSLRKVKLVRPPY | 3.09
YSLTTSSTHKRSSLRKVKLVRPPK | 2.75
YSLTTSSTHKRSSLRKVKLVRPPL | 2.86

Variant | protein stability index
YSLTTSSTHKRSSLRKVKLVRPPV | 2.31
YSLTTSSTHKRSSLRKVNLVRPPQ | 2.98
YSLTTSSTHKRSSLRKVALVRPPQ | 3.2
YSLTTSSTHKRSSLRKVRLVRPPQ | 2.38
YSLTTSSTHKRSSLRKVSLVRPPQ | 3.06
YSLTTSSTHKRSSLRKVILVRPPQ | 2.34
YSLTTSSTHKRSSLRKVCLVRPPQ | 2.63
YSLTTSSTHKRSSLRKVPLVRPPQ | 3.47
YSLTTSSTHKRSSLRKVWLVRPPQ | 2.32
YSLTTSSTHKRSSLRKVLLVRPPQ | 2.49
YSLTTSSTHKRSSLRKVQLVRPPQ | 3.09
YSLTTSSTHKRSSLRKVGLVRPPQ | 2.81
YSLTTSSTHKRSSLRKVFLVRPPQ | 2.54
YSLTTSSTHKRSSLRKVMLVRPPQ | 2.22
YSLTTSSTHKRSSLRKVYLVRPPQ | 2.05
YSLTTSSTHKRSSLRKVDLVRPPQ | 3.81
YSLTTSSTHKRSSLRKVVLVRPPQ | 2.68
YSLTTSSTHKRSSLRKVELVRPPQ | 3.43
YSLTTSSTHKRSSLRKVTLVRPPQ | 2.81
YSLTTSSTHKRSSLRKVHLVRPPQ | 3.71
YSLTTSSTHKRSSLRKVKLVRAPQ | 2.76
YSLTTSSTHKRSSLRKVKLVRCPQ | 3.61
YSLTTSSTHKRSSLRKVKLVRHPQ | 2.49
YSLTTSSTHKRSSLRKVKLVRTPQ | 3.32

Variant | protein stability index
YSLTTSSTHKRSSLRKVKLVRIPQ | 2.27
YSLTTSSTHKRSSLRKVKLVRRPQ | 3
YSLTTSSTHKRSSLRKVKLVREPQ | 3.5
YSLTTSSTHKRSSLRKVKLVRVPQ | 2.48
YSLTTSSTHKRSSLRKVKLVRWPQ | 1.94
YSLTTSSTHKRSSLRKVKLVRDPQ | 3.39
YSLTTSSTHKRSSLRKVKLVRNPQ | 3.72
YSLTTSSTHKRSSLRKVKLVRFPQ | 2.44
YSLTTSSTHKRSSLRKVKLVRKPQ | 3.28
YSLTTSSTHKRSSLRKVKLVRQPQ | 3.39
YSLTTSSTHKRSSLRKVKLVRYPQ | 2.84
YSLTTSSTHKRSSLRKVKLVRGPQ | 2.44
YSLTTSSTHKRSSLRKVKLVRSPQ | 3.13
YSLTTSSTHKRSSLRKVKLVRMPQ | 2.76
YSLTTSSTHKRSSLRKVKLVRLPQ | 2.58
YSLTTSSTHKRSSLRKVKLVGPPQ | 3.62
YSLTTSSTHKRSSLRKVKLVDPPQ | 3.19
YSLTTSSTHKRSSLRKVKLVNPPQ | 2.92
YSLTTSSTHKRSSLRKVKLVQPPQ | 2.95
YSLTTSSTHKRSSLRKVKLVAPPQ | 3.15
YSLTTSSTHKRSSLRKVKLVYPPQ | 2.4
YSLTTSSTHKRSSLRKVKLVVPPQ | 2.53
